# Measurements: the supplement of paper PMC10567573
# B1: LOXL2 (parent)
# chain: YVEVKEGKTWKQICDKHWTAKNSR
# B2: ZNF649 (parent)
# chain: MTKAQESLTLEDVAVDFTWEEWQF
# Variants of: B1
# Assay: protein stability index of a GFP-peptide fusion (GPS, HEK-293T) (PSI 1-6); higher = more stable
# Settings: c terminus: a fixed tail appended
# 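Further: lentivirally expressed fusions sorted by FACS into six bins by GFP to DsRed ratio, PSI derived from sequencing read proportions per bin multiplied by bin number.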
row,Variant,protein stability index
1,Y1F,3.57
2,Y1H,3.14
3,Y1L,3.34
4,Y1D,3.52
5,Y1I,2.68
6,Y1P,3.68
7,Y1N,3.93
8,Y1M,3.49
9,Y1K,3.84
10,Y1G,3.72
11,Y1A,3.4
12,Y1C,3.36
13,Y1E,3.46

# Variants of: B2
# Assay: as above
# Settings: c terminus: a fixed tail appended
row,Variant,protein stability index
1,E21N,1.54
2,E21D,3.36
3,E21H,1.53
4,E21K,1.95
5,E21Y,1.95
6,E21Q,3.08
7,E21V,2.81
8,E21A,2.12
9,E21S,2.11
10,E21R,3.17
11,E21T,2.21
12,E21C,1.58
13,E21W,2.72
14,E21G,1.49
15,E21F,3.42
16,E21L,1.23
17,E21P,1.89
18,E21M,2.25
19,E11W,2.13
20,E11L,1.56
21,E11R,2.39
22,E11N,3.28
23,E11Q,3.9
24,E11I,2.25
25,E11Y,1.28

row,Variant,protein stability index
1,E11A,2.39
2,E11P,2.69
3,E11F,1.44
4,E11S,2.83
5,E11D,3.57
6,E11T,2.86
7,E11K,2.62
8,E11V,1.43
9,E11C,2.12
10,E11M,2.14
11,E11H,2
12,E11G,2.98
13,V15S,3.35
14,V15K,3.95
15,V15Y,3.91
16,V15H,4.33
17,V15C,3.71
18,V15F,2.48
19,V15G,4.07
20,V15A,3.92
21,V15L,2.56
22,V15T,4.1
23,V15N,3.87
24,V15R,4.16
25,V15P,4.07

row,Variant,protein stability index
1,V15E,3.94
2,V15Q,4.44
3,V15D,3.77
4,V15M,3.77
5,V15W,2.59
6,V15I,2.53
7,D16N,3.77
8,D16M,2.34
9,D16A,3.34
10,D16P,4.02
11,D16E,1.85
12,D16C,2.89
13,D16I,2.52
14,D16G,3.13
15,D16V,2.29
16,D16K,2.5
17,D16Q,2.92
18,D16T,3.32
19,D16L,2.73
20,D16F,2.94
21,D16H,3.23
22,D16Y,2.64
23,D16S,3.12
24,D16R,2.22
25,S7Q,3.68

row,Variant,protein stability index
1,S7V,2.5
2,S7T,3.67
3,S7P,3.14
4,S7Y,2.54
5,S7N,3.39
6,S7M,2.69
7,S7W,1.72
8,S7R,3.55
9,F24C,3.99
10,F24M,4.49
11,F24E,5.32
12,F24T,3.94
13,F24V,3.77
14,F24A,4.61
15,F24S,3.9
16,F24I,2.51
17,F24P,3.9
18,F24K,4.87
19,F24H,4.01
20,F24L,3.83
21,F24R,4.34
22,F24D,4.57
23,F24W,2.88
24,F24G,4.45
25,F24N,4.35

row,Variant,protein stability index
1,F24Y,3.4
2,F17L,4.03
3,F17E,5.01
4,F17W,3.31
5,F17K,4.72
6,F17Q,4.51
7,F17P,4.43
8,F17R,3.61
9,F17H,3.94
10,F17A,4.42
11,F17G,3.81
12,F17T,3.95
13,F17V,4.05
14,F17D,4.75
15,F17Y,3.76
16,F17M,4.17
17,F17S,4.52
18,F17N,3.64
19,F17I,4.25
20,F17C,4.1
21,W19K,3.58
22,W19M,3.77
23,W19T,4.07
24,W19L,3
25,W19N,4.37

row,Variant,protein stability index
1,W19C,3.85
2,W19D,4.65
3,W19S,4.29
4,W19G,4.61
5,W19Y,3.61
6,W19V,3.68
7,W19I,2.56
8,W19E,4.66
9,W19A,4.51
10,W19F,3.19
11,W19H,3.6
12,W19Q,4.43
13,W19R,4.07
14,W19P,4.43
15,L8R,3.79
16,L8I,3.05
17,L8A,4.22
18,L8D,4.41
19,L8C,3.42
20,L8P,3.58
21,L8Y,2.7
22,L8K,4.31
23,L8T,3.93
24,L8S,4.47
25,L8E,4.39

row,Variant,protein stability index
1,L8F,2.5
2,L8N,4.42
3,L8G,4.11
4,L8V,3.59
5,L8W,2.23
6,L8M,3.62
7,L8H,4.05
8,W22K,4.76
9,W22G,4.33
10,W22E,4.52
11,W22A,4.17
12,W22M,3.72
13,W22V,3.96
14,W22L,3.62
15,W22I,3.54
16,W22S,4.78
17,W22F,3.41
18,W22C,3.12
19,W22H,4.13
20,W22P,4.4
21,W22R,3.69
22,W22Q,4.16
23,W22D,4.64
24,W22Y,3.44
25,W22T,4.28

row,Variant,protein stability index
1,W22N,4.27
2,T9M,3.16
3,T9R,3.59
4,T9A,3.37
5,T9S,3.43
6,T9L,2.54
7,T9N,4.28
8,T9K,3.38
9,T9P,4.17
10,T9D,3.71
11,T9H,3.81
12,T9F,3.35
13,T9Y,2.41
14,T9I,2.71
15,T9E,3.94
16,T9G,3.49
17,T9W,2.54
18,T9V,3.16
19,T9Q,3.58
20,T9C,3.52
21,E20L,1.3
22,E20G,2.17
23,E20A,2.48
24,E20T,2.5
25,E20S,2.65

row,Variant,protein stability index
1,E20R,2.06
2,E20K,2.51
3,E20W,2.28
4,E20F,1.44
5,E20M,2.57
6,E20N,2.41
7,E20I,1.87
8,E20Y,2
9,E20Q,2.32
10,E20V,3.37
11,E20H,2.22
12,E20P,2.76
13,E20C,2.48
14,E20D,3.14
15,L10C,4.05
16,L10I,2.81
17,L10K,4.34
18,L10Q,4.13
19,L10W,3.19
20,L10P,4.11
21,L10N,4.29
22,L10V,3.01
23,L10H,4.42
24,L10T,4.05
25,L10S,4.07

row,Variant,protein stability index
1,L10M,3.44
2,L10A,3.8
3,L10G,4.14
4,L10F,3.61
5,L10Y,3.24
6,L10R,3.88
7,L10E,4.38
8,L10D,4.91
9,T18Y,1.36
10,T18K,2.48
11,T18L,2.26
12,T18P,3.16
13,T18C,2.64
14,T18D,4.1
15,T18Q,2.75
16,T18W,1.51
17,T18S,3.15
18,T18A,3.87
19,T18E,3.32
20,T18V,1.95
21,T18N,3.47
22,T18M,2.39
23,T18F,1.79
24,T18G,3.37
25,T18H,2.63

row,Variant,protein stability index
1,T18I,2.41
2,T18R,2.17
3,V13G,3.64
4,V13H,3.88
5,V13E,4.25
6,V13M,3.54
7,V13I,3.47
8,V13L,3.23
9,V13W,2.36
10,V13Q,4.18
11,V13A,3.98
12,V13K,4.16
13,V13T,4.11
14,V13F,2.54
15,V13C,3.37
16,V13R,3.45
17,V13P,4.15
18,V13S,4.69
19,V13N,4.33
20,V13D,4.11
21,V13Y,3.17
22,D12A,1.72
23,D12Q,2.84
24,D12G,2.55
25,D12N,2.23

row,Variant,protein stability index
1,D12I,2.95
2,D12K,2.7
3,D12C,2.65
4,D12V,1.92
5,D12E,3.23
6,D12H,2.68
7,D12F,3.77
8,D12M,2.14
9,D12T,2.2
10,D12Y,4.33
11,D12P,3.05
12,D12L,3.49
13,D12S,2.13
14,D12R,2.85
15,Q23E,3.46
16,Q23G,2.87
17,Q23Y,2.38
18,Q23I,1.97
19,Q23P,3.22
20,Q23V,2.08
21,Q23H,2.02
22,Q23T,3.1
23,Q23R,3.56
24,Q23K,3.28
25,Q23D,3.51

row,Variant,protein stability index
1,Q23L,2.05
2,Q23F,2.66
3,Q23A,4.2
4,Q23S,3.06
5,Q23M,2.72
6,Q23N,2.74
7,Q23C,2.26
8,A14C,2.4
9,A14D,4.04
10,A14T,2.92
11,A14S,3.06
12,A14P,4.12
13,A14Q,3.61
14,A14F,2.08
15,A14L,1.74
16,A14I,1.88
17,A14H,3.12
18,A14Y,1.65
19,A14N,2.92
20,A14M,2.46
21,A14W,3.29
